Measurements as given in paper PMC4238996 (PLoS Neglected Tropical Diseases, 2014).

B1: unnamed (parent)
chain 1: MQQPTEHTTPMDSLAPPALVIKTPHQAFTAHAAQGPVVIGRDAPAQVRIPDERISRAHVRVTYTSTGWVAVDMSSNGTFVNGVQQATIPITDGLTIHLGHPLEGIAISFSYTIAPPLAVDDATEHIEDTSDPKMVRVGAEIAARREELGLPKRELDRRGVVGQATMTDIEKGRRFPRPFTRDKIEAVLGWPRGHIMWLYEQDIQPDEERTHVLTATTPVPEITGATKMALKGFTAAADSLPPEDDPAFTDRVGALLADLRELESVAASATHSAHGTSAAALVLSDVRKLYKALMLRAAGAPGATLGQRFYAARYRAELTTQDAAAAAGLPVAIIEAAEADAPLDPAATAAVQALLTSLLSQR
chain 2: MALPLGTVVAGYVIEGVLGSGGMGTVYLARHPTLPRSDALKILSAELSQDEQFRVRFIREADLAATLSHPNIVTVFNRGETDDGQLWIAMQYVEGTTASDLHATVLTPARVAAIITDVGAALDYAHSRRVLHRDIKPSNFLVSADHERVLLADFGIARAFDDTTLTAIGSLVGTASYAAPEAIQGGSVDQRADVYSLGCALFRLLTGRAPYEDLRGPAMLMAHVLQPIPRPSHIVVGLPPAIDDVIAVAMAKDPAARFPTAGALAGAARAALSGQPLPQAPPGGPKTRIWAAPPLSYPTTRPPGISGGAISPAGFAGAAHPGLAGAASSSDERGGPRAPRRRKR

Variants of: B1
Assay: ELISA
Conditions: with partner chain of the complex shown; read at the highest MupFHA concentration point, x about 2320 µM; parent: 1; read off a plot

In order of rising response:
1. chain 2 MALPLGTVVAGYVIEGVLGSGGMGTVYLARHPTLPRSDALKILSAELSQDEQFRVRFIREADLAATLSHPNIVTVFNRGETDDGQLWIAMQYVEGTTASDLHATVLTPARVAAIITDVGAALDYAHSRRVLHRDIKPSNFLVSADHERVLLADFGIARAFDDTTLTAIGALVGTASYAAPEAIQGGSVDQRADVYSLGCALFRLLTGRAPYEDLRGPAMLMAHVLQPIPRPSHIVVGLPPAIDDVIAVAMAKDPAARFPTAGALAGAARAALSGQPLPQAPPGGPKTRIWAAPPLSYPTTRPPGISGGAISPAGFAGAAHPGLAGAASSSDERGGPRAPRRRKR [chain 2 S170A]  0.43 O.D. 490 nm
2. chain 2 MALPLGTVVAGYVIEGVLGSGGMGTVYLARHPTLPRSDALKILSAELSQDEQFRVRFIREADLAATLSHPNIVTVFNRGETDDGQLWIAMQYVEGTTASDLHATVLTPARVAAIITDVGAALDYAHSRRVLHRDIKPSNFLVSADHERVLLADFGIARAFDDTTLTAIGSLVGAASYAAPEAIQGGSVDQRADVYSLGCALFRLLTGRAPYEDLRGPAMLMAHVLQPIPRPSHIVVGLPPAIDDVIAVAMAKDPAARFPTAGALAGAARAALSGQPLPQAPPGGPKTRIWAAPPLSYPTTRPPGISGGAISPAGFAGAAHPGLAGAASSSDERGGPRAPRRRKR [chain 2 T174A]  0.58 O.D. 490 nm
3. chain 2 MALPLGTVVAGYVIEGVLGSGGMGTVYLARHPTLPRSDALKILSAELSQDEQFRVRFIREADLAATLSHPNIVTVFNRGETDDGQLWIAMQYVEGTTASDLHATVLTPARVAAIITDVGAALDYAHSRRVLHRDIKPSNFLVSADHERVLLADFGIARAFDDTTLTAIGSLVGTASYAAPEAIQGGSVDQRADVYSLGCALFRLLTGRAPYEDLRGPAMLMAHVLQPIPRPSHIVVGLPPAIDDVIAVAMAKDPAARFPAAGALAGAARAALSGQPLPQAPPGGPKTRIWAAPPLSYPTTRPPGISGGAISPAGFAGAAHPGLAGAASSSDERGGPRAPRRRKR [chain 2 T260A]  1 O.D. 490 nm

Variants of: B1
Assay: sandwich ELISA
Conditions: with partner chain of the complex shown; His6-PknQ adsorbed on a 96-well plate; equimolar amounts of GST-tagged substrates; parent: 2; read off a plot

In order of rising response:
1. chain 1 MQQPTEHTTPMDSLAPPALVIKTPHQAFTAHAAQGPVVIGRDAPAQVRIPDERIARAHVRVTYTSTGWVAVDMSSNGTFVNGVQQATIPITDGLTIHLGHPLEGIAISFSYTIAPPLAVDDATEHIEDTSDPKMVRVGAEIAARREELGLPKRELDRRGVVGQATMTDIEKGRRFPRPFTRDKIEAVLGWPRGHIMWLYEQDIQPDEERTHVLTATTPVPEITGATKMALKGFTAAADSLPPEDDPAFTDRVGALLADLRELESVAASATHSAHGTSAAALVLSDVRKLYKALMLRAAGAPGATLGQRFYAARYRAELTTQDAAAAAGLPVAIIEAAEADAPLDPAATAAVQALLTSLLSQR [chain 1 S55A]  0.38 O.D. 490 nm
2. chain 1 MQQPTEHTTPMDSLAPPALVIKTPHQAFTAHAAQGPVVIGADAPAQVRIPDERISRAHVRVTYTSTGWVAVDMSSNGTFVNGVQQATIPITDGLTIHLGHPLEGIAISFSYTIAPPLAVDDATEHIEDTSDPKMVRVGAEIAARREELGLPKRELDRRGVVGQATMTDIEKGRRFPRPFTRDKIEAVLGWPRGHIMWLYEQDIQPDEERTHVLTATTPVPEITGATKMALKGFTAAADSLPPEDDPAFTDRVGALLADLRELESVAASATHSAHGTSAAALVLSDVRKLYKALMLRAAGAPGATLGQRFYAARYRAELTTQDAAAAAGLPVAIIEAAEADAPLDPAATAAVQALLTSLLSQR [chain 1 R41A]  0.95 O.D. 490 nm

Variants of: B1
Assay: ELISA
Conditions: with partner chain of the complex shown; read at the highest MupFHA concentration point, x about 1160 µM; parent: 1.6; read off a plot

In order of falling response:
1. chain 2 MALPLGTVVAGYVIEGVLGSGGMGTVYLARHPTLPRSDALKILSAELSQDEQFRVRFIREADLAATLSHPNIVTVFNRGETDDGQLWIAMQYVEGTTASDLHATVLTPARVAAIITDVGAALDYAHSRRVLHRDIKPSNFLVSADHERVLLADFGIARAFDDTTLAAIGSLVGTASYAAPEAIQGGSVDQRADVYSLGCALFRLLTGRAPYEDLRGPAMLMAHVLQPIPRPSHIVVGLPPAIDDVIAVAMAKDPAARFPTAGALAGAARAALSGQPLPQAPPGGPKTRIWAAPPLSYPTTRPPGISGGAISPAGFAGAAHPGLAGAASSSDERGGPRAPRRRKR [chain 2 T166A]  1.5 O.D. 490 nm
2. chain 2 MALPLGTVVAGYVIEGVLGSGGMGTVYLARHPTLPRSDALMILSAELSQDEQFRVRFIREADLAATLSHPNIVTVFNRGETDDGQLWIAMQYVEGTTASDLHATVLTPARVAAIITDVGAALDYAHSRRVLHRDIKPSNFLVSADHERVLLADFGIARAFDDTTLTAIGSLVGTASYAAPEAIQGGSVDQRADVYSLGCALFRLLTGRAPYEDLRGPAMLMAHVLQPIPRPSHIVVGLPPAIDDVIAVAMAKDPAARFPTAGALAGAARAALSGQPLPQAPPGGPKTRIWAAPPLSYPTTRPPGISGGAISPAGFAGAAHPGLAGAASSSDERGGPRAPRRRKR [chain 2 K41M]  0.26 O.D. 490 nm
3. chain 2 MALPLGTVVAGYVIEGVLGSGGMGTVYLARHPTLPRSDALKILSAELSQDEQFRVRFIREADLAATLSHPNIVTVFNRGETDDGQLWIAMQYVEGTTASDLHATVLTPARVAAIITDVGAALDYAHSRRVLHRDIKPSNFLVSADHERVLLADFGIARAFDDTTLTAIGALVGTASYAAPEAIQGGSVDQRADVYSLGCALFRLLTGRAPYEDLRGPAMLMAHVLQPIPRPSHIVVGLPPAIDDVIAVAMAKDPAARFPTAGALAGAARAALSGQPLPQAPPGGPKTRIWAAPPLSYPTTRPPGISGGAISPAGFAGAAHPGLAGAASSSDERGGPRAPRRRKR [chain 2 S170A]  0.21 O.D. 490 nm
